Results reported in paper PMC11210195.

How the values were obtained:
[1] = target: mAb1 WT-AAA (human); experiment: SPR; antibody Fc variants captured via CaptureSelect Human Fab-kappa ligand on a C1 chip (approx. 60 RU); PRYSPRY injected, five concentrations, two-fold series; 25°C, HBS-EP+ pH 7.4; 1:1 Langmuir fit
[2] = target: mAb1 YTE (human); experiment: as above
[3] = target: mAb1 HH (human); experiment: as above
[4] = target: Fc WT (Fc-only variant, human IgG1 core hinge-CH2-CH3, wild type) (human); experiment: SPR; Biacore T200, C1 chip, 25 °C, HBS-EP+ (10 mM HEPES, 150 mM NaCl, 3 mM EDTA, 0.05% P20, pH 7.4); antibody Fc variants captured via anti-human Fab-kappa nanobody (about 60 RU), Fc only variants amine-coupled (60-80 RU), cytokine-Fc fusions captured via anti-PGLALA F(ab')2 (35-40 RU); PRYSPRY domain injected in five two-fold dilutions from 500, 1000 or 2000 nM; global fit, Langmuir 1:1, affinity mode
[5] = target: mAb1 HH (human IgG1, T307H, N434H) (human); experiment: as above

TRIM21 PRYSPRY domain, sequence (P19474 277-475): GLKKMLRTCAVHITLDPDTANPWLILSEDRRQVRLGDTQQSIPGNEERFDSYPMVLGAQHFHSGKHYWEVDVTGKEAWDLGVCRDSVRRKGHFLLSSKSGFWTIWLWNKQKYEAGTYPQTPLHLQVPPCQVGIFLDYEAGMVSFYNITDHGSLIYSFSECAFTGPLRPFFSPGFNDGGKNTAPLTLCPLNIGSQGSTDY

Kd [1]: 40 nM | stoichiometry N [1]: 1 | fold decrease of affinity against mAb1 Fc WT [2]: 1.7 fold | fold faster off rate against WT [2]: 1.6 fold | fold decrease of affinity against mAb1 Fc WT [3]: 2.4 fold | fold faster off rate against WT [3]: 5 fold | fold faster on rate against WT [3]: 2 fold | Kd [4]: 65.1 nM | koff [4]: 0.102 s⁻¹ | kon [4]: 1.57e+06 M⁻¹ s⁻¹ | Kd [5]: 101 nM | koff [5]: 0.477 s⁻¹ | kon [5]: 4.74e+06 M⁻¹ s⁻¹
Substance: TRIM21 PRYSPRY domain (from UniProt P19474-1 277-475) (domain or fragment)
